Reference: patent US20240368264A1 (SHANGHAI NOVAMAB BIOPHARMACEUTICALS, published 2024)

Experiments:
[1] = target: TSLP-Fc antigen; assay: BLI (Fortebio): antibody captured on Protein A probe, TSLP-Fc antigen 2-fold from 20 nM, global fit
Description: The binding kinetics of 14 blocking TSLP nanobodies were measured by Bio-layer interferometry (BLI). For kinetic measurements, candidate antibodies were diluted to 5 ug/mL in PBST buffer, TSLP-Fc antigen diluted in PBST buffer in 2-fold gradients in six concentration gradients (2-fold gradient dilution from 20 nM), and set the instrument operating conditions: Temperature 30° C., Shake speed 1000 rpm. Antibodies were captured using a probe already encapsulated with Protein A, capture time 60 s; Binding of gradient diluted antigen, binding time 240 s; dissociation time 300 s; 10 mM glycine (pH 1.7) regenerated 2 times for 5 s each. Fortebio Analysis version 9.0 was used to perform the analysis, Global mode was fitted and the binding rate (Kon), dissociation rate (Kdis) and dissociation constant KD were calculated.

[2] = target: TSLP-Biotin protein (UniProt Q969D9 29-159, biotinylated (site not stated)); assay: flow cytometry blocking assay: antibody diluted 2-fold from 20 ug/mL with TSLP-Biotin on HEK293F/TSLPR transient cells, SA-PE, MFI; blocked partner: TSLPR on the cells
Description: The above 31 purified antibodies were again subjected to flow cytometry blocking activity assay. […] Centrifuged again and discard supernatant, add 200 uL PBS per well to resuspend cells, flow cytometry was performed to detect PE signal of sample.

[3] = target: human TSLP factor (human, UniProt Q969D9 29-159); assay: cell-based or functional assay
[4] = target: Human TSLP antigen protein (human, UniProt Q969D9 29-159); assay: blocking ELISA: human TSLP coated, antibody dilutions with 0.02 ug/mL biotinylated TSLPR, SA-HRP, OD450; blocked partner: biotinylated TSLPR protein
Description: The above purified bivalent humanized antibodies were subjected to ELISA to detect blocking activity. […] After washing 5 times with PBST, 100 uL of TMB color-substrate solution was added and colour development at 37° C. for 10 min. The reaction was terminated by adding 2M H₂SO₄ 50 uL/well, and the absorption value was measured at 450 nm on an microplate reader.

Row | Binder | Kd [1] [nM] | koff [1] [s⁻¹] | kon [1] [M⁻¹ s⁻¹] | IC50 (read off the curve) [2] [µg/mL] | IC50 of inhibition of hTSLP-induced pSTAT5 (PE MFI, flow cytometry) in BaF3/TSLPR-IL7R cells [3] [ug/ml] | IC50 [4] [µg/mL]
1 | Bi-HuNb5-31 (VHH, also called humanized bivalent antibody; bivalent single domain antibody) EVQLLESGGGLVQPGGSLRLSCTASGFTSGGSDMGWYRQAPGNECDLVSYISSDGSTYYADSVKGRFTISQDNAKNTVYLQMNSLKPEDTAVYYCAATDYGLGPPPSSTGQCYGMDYWGKGTLVTVSSGGGGSGGGGSGGGGSGGGGSEVQLLESGGGLVQPGGSLRLSCTASGFTSGGSDMGWYRQAPGNECDLVSYISSDGSTYYADSVKGRFTISQDNAKNTVYLQMNSLKPEDTAVYYCAATDYGLGPPPSSTGQCYGMDYWGKGTLVTVSS |  |  |  |  | 0.0797 | 0.0759
2 | Nb10-63 (VHH, Camel nanobody before humanization) VHH: QVQLQESGGGSVQAGGSLRLSCTASGFTLDDSDMGWYRQAPGDECELVSTISSLGGTYYADSVKGRFTISHDNAKNTVYLQMNSLKPHDTAVYYCAPGTDRYSDCPNEYSVWGQGTQVTVSS | 0.0945 | 0.000263 | 2.78e+06 |  |  | 
3 | Nb5-31 (VHH, Camel nanobody before humanization) VHH: QVQLQESGGGSVQAGGSLRLSCTASGFTSGGSDMGWYRQAPGNECDLVSYISSDGSTYYADSVKGRFTISQDNAKNTVYLQMNSLKPEDTAVYYCAATDYGLGPPPSSTGQCYGMDYWGKGTQVTVSS | 0.115 | 0.000231 | 2.02e+06 |  |  | 
4 | Bi-HuNb10-63 (VHH, also called humanized bivalent antibody; bivalent single domain antibody) EVQLLESGGGLVQPGGSLRLSCTASGFTLDDSDMGWYRQAPGDECELVSTISSLGGTYYADSVKGRFTISHDNAKNTVYLQMNSLKPHDTAVYYCAPGTDRYSDCPNEYSVWGQGTLVTVSSGGGGSGGGGSGGGGSGGGGSEVQLLESGGGLVQPGGSLRLSCTASGFTLDDSDMGWYRQAPGDECELVSTISSLGGTYYADSVKGRFTISHDNAKNTVYLQMNSLKPHDTAVYYCAPGTDRYSDCPNEYSVWGQGTLVTVSS |  |  |  |  | 0.472 | 0.0824

Other lines, results leading:

Row | Kd [1] [nM] | koff [1] [s⁻¹] | kon [1] [M⁻¹ s⁻¹] | IC50 (read off the curve) [2] [µg/mL] | IC50 of inhibition of hTSLP-induced pSTAT5 (PE MFI, flow cytometry) in BaF3/TSLPR-IL7R cells [3] [ug/ml] | IC50 [4] [µg/mL] | Binder
5 | 0.226 | 0.000588 | 2.61e+06 | ~0.2 |  |  | Nb7-54 (VHH, Camel nanobody before humanization) VHH: QVQLQESGGGSVQAGETLRLSCTASGFTFDDSDMGWYRQAPGNECELVSIISSDGMTYYADSVKGRFTISQDNAKNTVYLQMNSLKPEDTAVYYCAATKYSSDYDVAEDWRRGVCGDMDYWGKGTQVTVSS
6 |  |  |  |  | 0.0198 | 0.141 | Bi-HuNb7-54 (VHH, also called humanized bivalent antibody; bivalent single domain antibody) EVQLLESGGGLVQPGETLRLSCTASGFTFDDSDMGWYRQAPGNECELVSIISSDGMTYYADSVKGRFTISQDNAKNTVYLQMNSLKPEDTAVYYCAATKYSSDYDVAEDWRRGVCGDMDYWGKGTLVTVSSGGGGSGGGGSGGGGSGGGGSEVQLLESGGGLVQPGETLRLSCTASGFTFDDSDMGWYRQAPGNECELVSIISSDGMTYYADSVKGRFTISQDNAKNTVYLQMNSLKPEDTAVYYCAATKYSSDYDVAEDWRRGVCGDMDYWGKGTLVTVSS
